The results in this text go back to PMC9652393, “Differential impact of ubiquitous and muscle dynamin 2 isoforms in muscle physiology and centronuclear myopathy” (Nature Communications, 2022).

The labels stand for the following.
B2: Human ubiquitous dynamin 2 isoform (Ub-DNM2), recombinant (natural protein, UniProt P50570-2 1-866, looked up)
chain: MGNRGMEELIPLVNKLQDAFSSIGQSCHLDLPQIAVVGGQSAGKSSVLENFVGRDFLPRGSGIVTRRPLILQLIFSKTEHAEFLHCKSKKFTDFDEVRQEIEAETDRVTGTNKGISPVPINLRVYSPHVLNLTLIDLPGITKVPVGDQPPDIEYQIKDMILQFISRESSLILAVTPANMDLANSDALKLAKEVDPQGLRTIGVITKLDLMDEGTDARDVLENKLLPLRRGYIGVVNRSQKDIEGKKDIRAALAAERKFFLSHPAYRHMADRMGTPHLQKTLNQQLTNHIRESLPALRSKLQSQLLSLEKEVEEYKNFRPDDPTRKTKALLQMVQQFGVDFEKRIEGSGDQVDTLELSGGARINRIFHERFPFELVKMEFDEKDLRREISYAIKNIHGVRTGLFTPDLAFEAIVKKQVVKLKEPCLKCVDLVIQELINTVRQCTSKLSSYPRLREETERIVTTYIREREGRTKDQILLLIDIEQSYINTNHEDFIGFANAQQRSTQLNKKRAIPNQVIRRGWLTINNISLMKGGSKEYWFVLTAESLSWYKDEEEKEKKYMLPLDNLKIRDVEKGFMSNKHVFAIFNTEQRNVYKDLRQIELACDSQEDVDSWKASFLRAGVYPEKDQAENEDGAQENTFSMDPQLERQVETIRNLVDSYVAIINKSIRDLMPKTIMHLMINNTKAFIHHELLAYLYSSADQSSLMEESADQAQRRDDMLRMYHALKEALNIIGDISTSTVSTPVPPPVDDTWLQSASSHSPTPQRRPVSSIHPPGRPPAVRGPTPGPPLIPVPVGAAASFSAPPIPSRPGPQSVFANSDLFPAPPQIPSRPVRIPPGIPPGVPSRRPPAAPSRPTIIRPAEPSLLD
notes: dynamin 2 (DNM2), human, ubiquitous isoform; same variant of exon 10 as the M-DNM2 plasmid; No tag is stated for the pVL1392 constructs; also called WT Ub-DNM2

Series [1] deals with B2. As to the kind of experiment: pull-down; GST-SH3 of BIN1 (0.16, 0.4 or 1.6 ml supernatant) bound to GSH-Sepharose overnight, washed with 300 mM NaCl, 50 mM Tris pH 8.0, 5 mM imidazole, 1 mM DTT; 0.07 mg purified M-DNM2 or Ub-DNM2 added for 20 min, washed; resin loaded on SDS-PAGE. The note with it: both partners purified.
Series [2] concerns the molecule itself. In words: SEC-MALS; Superose 6 10/300 GL; 20 mM HEPES pH 7.4, 1.5 M NaCl, 1 mM EGTA, 1 mM DTT, 5% glycerol; 4 °C, 0.5 ml/min. Background: SEC sorts molecules by how far they enter the pores of the column.

B1: Human SH3 domain of BIN1 with Glutathione S-transferase (GST) tag (domain or fragment, UniProt O00499 520-593, looked up)
chain: GFMFKVQAQHDYTATDTDELQLKAGDVVLVIPFQNPEEQDEGWLMGVKESDWNQHKELEKCRGVFPENFTERVP
notes: amphiphysin 2 (BIN1), human, SH3 domain; The methods also describe cutting off the GST tag with PreScission on the beads; also called GST-SH3; GST-SH3 of BIN1
For the molecule B1, the binding result in series [1] was “binds”. On to B2, for which the binding result in series [2] is given as “binds”.
